Laboratory results published in patent US20200157194A1 (Regeneron, published 2020).
Substitutions are numbered along the chain they refer to.

T1: recombinant human GREM1 (hGREM1-His; C-terminal 10His tagged, R&D, #5190-GR) (human, UniProt O60565 25-184, limits assumed)
T1 sequence: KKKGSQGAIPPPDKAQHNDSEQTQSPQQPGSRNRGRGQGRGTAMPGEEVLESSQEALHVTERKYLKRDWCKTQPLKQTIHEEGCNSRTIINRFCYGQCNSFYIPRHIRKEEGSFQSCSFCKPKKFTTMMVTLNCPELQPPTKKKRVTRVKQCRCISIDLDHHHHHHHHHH

T2: human GREM1 (hGREM1-His; SEQ ID NO: 595) (human, UniProt O60565 25-184)
T2 construct: also called biotin-hGREM1-His; recombinant human GREM1 protein
T2 sequence: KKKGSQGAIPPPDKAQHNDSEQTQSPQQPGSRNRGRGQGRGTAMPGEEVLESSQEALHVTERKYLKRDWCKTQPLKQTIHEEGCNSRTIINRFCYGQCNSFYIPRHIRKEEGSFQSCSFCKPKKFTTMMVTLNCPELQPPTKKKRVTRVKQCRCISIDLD

B1: H4H2783N2 (antibody, human IgG4, V domains shown)
VH: EVQLLESGGGLVQPGGSLRLSCAASGFTFSSYVMNWVRQAPGKGLEWVSAISGSGGSTYYADSVKGRSTISRDNSKNTLYLQMNSLRAEDTAIYYCAKGDIAAIVFDAFDIWGQGTVVTVSS
VL: DIQMTQSPSSLSASVGDRVTITCQASQDISSALNWYQHKPGKAPKLLIYDASYLETGVPSRFSGSGSGTDFTFTISSLQPEDIATYYCQQYDNLPYTFGQGTKLEIK
notes: H4H prefix = human IgG4 Fc
B2: H2bM2783N (antibody, mouse IgG2, V domains shown)
VH: B1 VH
VL: B1 VL with A32C
notes: H2M prefix = mouse IgG2 Fc (here H2bM); also called H2M2783N
B3: H4H2780N (antibody, human IgG4, V domains shown)
VH: EVQLVESGGGLVKPGGSLRLSCAASGFTFSTYSMNWVRQAPGKGLEWVSSISSGSSYIYYTDSVKGRFTISRDNAKNSLYLQMNSLRAEDTAVYYCARFGSYYYFGFDVWGQGTTVTVSS
VL: DIQMTQSPSSLSASVGDRVTITCRASQGISNYLAWYQQKPGKVPKLLIFSASTLQSGVPSRFSGSGSGPDFTLTVSSLQPEDVATYYCQKYNSAPFAFGPGTKVDIK
notes: H4H prefix = human IgG4 Fc
B4: H4H6269P (antibody, human IgG4, V domains shown)
VH: QVQLQESGPGLVKPSQTLSLTCTVSGGSISSGGYYWTWIRQHPGKGLEWIGYIYYSGSTYYNPSLKSRVTMSVDTSKNQFSLKLSSVTAADTAVYYCARLLDFDYWGQGTLVTVSS
VL: AIQMTQSPSSLSASVGDRVTITCRASQGIRNDLGWYQQKPGKAPKLLIYAASSLQSGVPSRFSGSGSGRDFTLTISSLQPEDFASYYCLQDHNYPLTFGGGTKVEIK
notes: H4H prefix = human IgG4 Fc

biological target: T1, recombinant human GREM1 (hGREM1-His; …); test: cell-based or functional assay

IC50 [M], inhibition of hGREM1-His, W-20-17/BRE-luc luciferase (100 pM hBMP4, 10 nM hGREM1-His) [M]	Binder
1.3e-09	B1

biological target: T2, human GREM1 (hGREM1-His; SEQ ID NO: 595); test: SPR, Biacore T200, 25 C, mAb captured, hGREM1-His injected;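 also: Heparin-supplemented HBS-EP+ used as running buffer, association and dissociation phases followed, Kd computed as koff divided by kon and half-life derived from koff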
Protocol: (§1) Kinetic experiments were carried out using HBS-EP+heparin [10 mM HEPES, 150 mM NaCl, 3 mM EDTA, 0.05% (v/v) surfactant P20, 10 μg/ml heparin sodium salt, pH 7.4] as both the running buffer and the sample buffer. […] Antigen-antibody association was monitored for 150 seconds while dissociation in buffer was monitored for 420 seconds. Kinetic analysis was performed using Scrubber software version 2.0a or Biacore T200 evaluation software v1.0 to determine kₐ and kd values. KD and t_{1/2} were then calculated from the experimentally determined kₐ and kd values as KD=kd/kₐ and t_{1/2}=In(2)/kd.

Kd [nM]	koff [s⁻¹]	kon [M⁻¹ s⁻¹]	t1/2 [min]	Binder
7.4	0.0015	202000	7.7	B2
15.7	0.000476	30400	24	B1
12.4	0.00088	71200	13	B3
0.625	6.32e-05	101000	183	B4

biological target: T1, recombinant human GREM1 (hGREM1-His; …); test: cell-based or functional assay; remark: another data set of the same source

hGREM1-His Inhibition IC50, M; W-20-17 cell differentiation assay (alkaline phosphatase) [nM]	Binder
5.6	B1

biological target: T1, recombinant human GREM1 (hGREM1-His; …); test: BLI Octet, mAb captured, 100 nM GREM1 + 5 uM heparin;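 also: octet Red96 biolayer interferometry at 25 °C, antibodies captured on anti-human IgG Fc biosensors, pH 7.4 HEPES buffer with 0.1 mg/mL BSA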
Protocol: (§2) Binding measurements were conducted using an Octet Red96 label-free biomolecular interaction instrument (ForteBio). All experiments were performed at 25° C. using plate agitation at 1000 rpm. Solutions were made in an aqueous buffer containing 10 mM HEPES, 150 mM NaCl, 3 mM EDTA 0.05% P20, 0.1 mg/mL BSA and adjusted to pH of 7.4 (HBST buffer).
(§3) Anti-Human IgG Fc Capture biosensors (ForteBio) were separately loaded with 50 μg/mL solutions of 24 different anti-GREM1 antibodies for 60 seconds. Following a 30 second wash, duplicate biosensors for each antibody were submerged into wells containing either 100 nM GREM1 solutions or 100 nM GREM1 solutions containing 5 μM of heparin, measuring association for 300 seconds.

Binding Signal with 30 sec Association [nm]	Binding Signal with 300 sec Association [nm]	Binder
0.01	0.29	B1
0.13	0.58	B3
0.14	0.52	B4

biological target: T2, human GREM1 (hGREM1-His; SEQ ID NO: 595); test: competition ELISA, biotin-hGREM1-His (100 pM) binding to coated hBMP4
Protocol: Data were analyzed using a sigmoidal dose-response model within Prism™ software. […] The absorbance values of the wells containing the highest concentration for each antibody were used to determine the percent maximum blocking.

% blocked at maximum Ab tested (20 nM) [%]	IC50 [nM]	Binder
76	< 0.025	B1
69	0.1	B3
73	0.026	B4

biological target: T2, human GREM1 (hGREM1-His; SEQ ID NO: 595); test: SPR, Biacore T200, 37 C, mAb captured, hGREM1-His injected;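 also: HBS-EP running buffer containing heparin, association and dissociation phases tracked, KD computed as koff over kon and half-life derived from koff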
Protocol: as §1

Kd [nM]	koff [s⁻¹]	kon [M⁻¹ s⁻¹]	t1/2 [min]	Binder
61.1	0.000849	13900	14	B1
28	0.00161	57400	7	B3
1.98	0.000254	128000	46	B4

biological target: T1, recombinant human GREM1 (hGREM1-His; …); test: BLI Octet, mAb captured, 100 nM GREM1;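 also: octet Red96 biolayer interferometry at 25 °C in pH 7.4 HEPES saline buffer, antibodies held on anti-human IgG Fc capture biosensors, then exposed to GREM1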
Protocol: as §2, §3

Binding Signal with 30 sec Association [nm]	Binding Signal with 300 sec Association [nm]	Binder
0.29	0.47	B1
0.13	0.58	B3
0.15	0.6	B4

biological target: T1, recombinant human GREM1 (hGREM1-His; …); test: BLI Octet, mAb captured, 100 nM GREM1 without vs with 5 uM heparin;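 also: octet Red96 biolayer interferometry at 25 °C, antibodies captured on anti-human IgG Fc biosensors, association of GREM1 measured with versus without heparin in HEPES-buffered saline, pH 7.4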

Reduction in Signal from Heparin at 30 sec [nm]	Reduction in Signal from Heparin at 300 sec [nm]	Binder
0.28	0.18	B1
0	0	B3
0.01	0.08	B4
